From patent publication US9695426B2, “Biofuel production by recombinant microorganisms” (The Regents of the University of California, priority 2007, dated 2017)

Test system: endogenous 2-keto acids in E. coli
Test: Alcohol productions with KDC and ADH in E. coli
Format: cell-based
Conditions: KDC over-produced with Adh2 in E. coli; minimal media with 0.2 M glucose
From the text: An enzyme in this alcohol production strategy is KDC, which is common in plants, yeasts and fungi but less so in bacteria. The aldehydes produced can then be converted to alcohols by an Adh, which is commonly found in many organisms. Some of the KDCs have broad-substrate ranges, while others are more specific. To test the capability of the endogenous 2-keto acids as a substrate for KDC in E. coli, five KDCs including Pdc6, Aro10, Thi3, from S. cerevisiae, Kivd from Lactococcus lactis, and Pdc from C. acetobutylycum were over-produced with alcohol dehydrogenase 2 (Adh2) of S. cerevisiae. E. coli cultures expressing these foreign genes were grown in a minimal media with 0.2 M glucose.

B1: PDC6: 2-keto-acid decarboxylase Pdc6 from S. cerevisiae (protein, listed as Saccharomyces cerevisiae)
chain: MSEITLGKYLFERLKQVNVNTIFGLPGDFNLSLLDKIYEVDGLRWAGNANELNAAYAADGYARIKGLSVLVTTFGVGELSALNGIAGSYAEHVGVLHVVGVPSISAQAKQLLLHHTLGNGDFTVFHRMSANISETTSMITDIATAPSEIDRLIRTTFITQRPSYLGLPANLVDLKVPGSLLEKPIDLSLKPNDPEAEKEVIDTVLELIQNSKNPVILSDACASRHNVKKETQKLIDLTQFPAFVTPLGKGSIDEQHPRYGGVYVGTLSKQDVKQAVESADLILSVGALLSDFNTGSFSYSYKTKNVVEFHSDYVKVKNATFLGVQMKFALQNLLKVIPDVVKGYKSVPVPTKTPANKGVPASTPLKQEWLWNELSKFLQEGDVIISETGTSAFGINQTIFPKDAYGISQVLWGSIGFTTGATLGAAFAAEEIDPNKRVILFIGDGSLQLTVQEISTMIRWGLKPYLFVLNNDGYTIEKLIHGPHAEYNEIQTWDHLALLPAFGAKKYENHKIATTGEWDALTTDSEFQKNSVIRLIELKLPVFDAPESLIKQAQLTAATNAKQ
modifications: CDS (1)..(1692)
notes: 2-keto-acid decarboxylase Pdc6 from S. cerevisiae
Product 1-propanol: 125 µM
Product 2-methyl-1-butanol: 56 µM
Product 3-methyl-1-butanol: 92 µM
Product isobutanol: 260 µM
